A protein production outcome set (Wang et al. 2014)

Test: label from the status in PepcDB records

Sequence | protein production
MIRILICFSLITASLLITSIFANSALLFTEFIHSLVDLIPIAFAFYALRIIDRIDSKYTYGLHRLEIVSSLFNIFTVVAGSVFSVYISTVELIEGSRGDFLLVLISSSIALSLSLVASTDKSEEGRVSGSKLHAIQDSLAYILAVISSLLIIIMKIYFIDPVSAYILNGVLVITSLSPLKFSYNILMEKSPIDTKSVETELQSIFPQVHHIHVWSICDHLNVATLHVRENPDLTLRELDKKREYAEKVLREKFGITHVTIQFEANNKKERLEKI | failed
MIRKLDKAEFQQATTLALEVYLQCGQDDFEDEGLESFKSFIFNDKLMNELCIYGAFEENKLIGIMGTKNEGKHISLFFIKKEFHRKGIGKQLFDYSQCDCPANEITVNSSTYAIRFYESLGFEKTNDRQQTNGISYTPMKLISNKLEHHHHHH | not failed
MIRKLMICIAVLVGFCPMAWGTVDDVPNPKTYDADNWVSDPDHILDSETKNKINDILQQLEDSLTIEVAVVALNSIGEEEPHEFAVTLFNLWGVGKAKDDNGLLILLTRDIRDITFKTGYGLEGVLPDAICKRIQMETMVPHLRENDWNTGMLEGVKAVAAVLYGSDYQAAPPEAWIKKFRRTTPSLVFIVFALMLILINWLVWKSAVHRMTPKDEGTEAALALLATRNPFTARTLLGLCWLVPVWPAMLGIACWYFGIQKQKTLRRSRTCPKCNRETLREIPLHELIKDTKRLTESERKETELKTAYIRIYRCSACSEEVKIRIPLEKDGYECCPSCGHMTLHKEEKYRTIIKATTSSEGLMEARHRCMYCDAEYMVGYTIPKINPSSRRSGGSGGGGGGSFGGGSSGGGGSSSRF | failed
MIRLNVFVRVNETNREKAIEAAKELTACSLKEEGCIAYDTFESSTRRDVFMICETWQNAEVLAAHEKTAHFAQYVGIIQELAEMKLEKFEF | not failed
MIRSIVCTQRLIHRIMYTSARKYFIQFAIVAFVLGFIPTLYFIHAASQLETQAVSSVEKQTRLQLEFSQHDLLRMLESTHQATQLLAKNDLLFTAVTTPSKEALSQLKTLWDVTLRSQAIFSSFRLLDRQGKEQLKAIYDGHQVTFVESAQTTDPFSQQIVAQYAQLTTPQVWATQVAMSADTPSGMLPTFRFVTGIEHQGQRQGFLVVTVKLQSLYQRLSFIYDQFDSPDILNSAGELLLSEHKPSGTRSTSSLHFSAQHPELWQKIQLNQQGFALSNQTWFSYIKVDLSSVLPDFKPLVLVLRINKAEIDKTYANARWALMSQAVTVLSLLSIIAAGFAAWNINHLKNSLDSKLARAAMDGMSAVVITDRQNRIIKVNNEFTRLSGYTFEDVKGKQPSIFASGLHKVEFYMQMWKALQDNGVWEGEVINKRKDGESITEILRIQSIRDEDNVIQFYVASFVDISHRKALENRLRELSEKDALTDLWNRRKFDQTISLECAKRRRYPDQAQSCLAIIDIDHFKRINDKFGHNEGDLVLRTVAKGIQDQLRESDFIARIGGEEFAIIFPYTSIEEAEQVLNRVRLHIASLHHQQVTLSGGVTDVCTSPDQSYKRADLALYESKTSGRNQISVLTAMEMHHFA | failed
MIRVASLIKAMSDTQLQIAQGASPLTGLPGNSAIEQEIKRRLNSGNAFGMIYADLNQFKAFNDTYGFQYGDSIIKLLGKILMQDSLKADDLAFVGHVGGDDFIILTTQNVTKTLGETILLSFQEQLSAMQGAQDLSLALAGLIIYPHTAWTPATLSERIAAVKREAKKAHCNYFLLRELEHHHHHH | failed
MIRVMATGVFDILHLGHIHYLKESKKLGDELVVVVARDSTARNNGKIPIFDENSRLALISELKVVDRAILGHEGDMMKTVIEVKPDIITLGYDQKFDEAELQSKINKLGITVKIVRISKYDGQLNSSSSVRKKIMELIGERY | not failed
MISALDSIPEPQNFAPSPDFKWLCEELFVKIHEVQINGTAGTGKSRSFKYYEIISNFVEMWRKTVGNNIYPALVLALPYRDRRIYNIKDYVLIRTICSYLKLPKNSATEQRLKDWKQRVGKGGNLSSLLVEEIAKRRAEPSSKAITIDNVNHYLDSLSGDRFASGRGFKSLVKSKPFLHCVENMSFVELKYFFDIVLKNRVIGGQEHKLLNCWHPDAQDYLSVISDLKVVTSKLYDPKVRLKDDDLSIKVGFAFAPQLAKKVNLSYEKICRTLHDDFLVEEKMDGERIQVHYMNYGESIKFFSRRGIDYTYLYGASLSSGTISQHLRFTDSVKECVLDGEMVTFDAKRRVILPFGLVKGSAKEALSFNSINNVDFHPLYMVFDLLYLNGTSLTPLPLHQRKQYLNSILSPLKNIVEIVRSSRCYGVESIKKSLEVAISLGSEGVVLKYYNSSYNVASRNNNWIKVKPEYLEEFGENLDLIVIGRDSGKKDSFMLGLLVLDEEEYKKHQGDSSEIVDHSSQEKHIQNSRRRVKKILSFCSIANGISQEEFKEIDRKTRGHWKRTSEVAPPASILEFGSKIPAEWIDPSESIVLEIKSRSLDNTETNMQKYATNCTLYGGYCKRIRYDKEWTDCYTLNDLYESRTVKSNPSYQAERSQLGLIRKKRKRVLISDSFHQNRKQLPISNIFAGLLFYVLSDYVTEDTGIRITRAELEKTIVEHGGKLIYNVILKRHSIGDVRLISCKTTTECKALIDRGYDILHPNWVLDCIAYKRLILIEPNYCFNVSQKMRAVAEKRVDCLGDSFENDISETKLSSLYKSQLSLPPMGELEIDSEVRRFPLFLFSNRIAYVPRRKISTEDDIIEMKIKLFGGKITDQQSLCNLIIIPYTDPILRKDCMNEVHEKIKEQIKASDTIPKIARVVAPEWVDHSINENCQVPEEDFPVVNY | failed
MISLRTFLITFLVNIALLGIFWGNRMNFVDVVIFSFFSALFVSLATHILVTSRLRKLREAVARKSRFEDFLNDEITKLAEEVNSVVENSLIQEKETEKLKDIVTGFVHDVKSLVWNEVEDENLQKIIEEFYEFAKLEAGLERLRKEPVNLVELVNDVVEKFPGKVIFKYDDVVEVEADPMKLFRAFYNVIENAVKYSSGPVEVHVKKDRIIVKGPGPEIPYEVRANLFEKKKKSKGTGLGLYLAREFFEMHGFRIAYRREGNHNVFEIYTGYTGMSSVKSERDSR | not failed
MISMKEEIKKVIEETGLPIITDEKSGAAQWVDLRELRLSYIISVENIKPFYEGLKEGKLLGTKCKKCGRLFFPPQKDCPSCFDSDIEWVELKNEGTLETMTVVFVRPPSFSAYDPYPVAIAKLDDGPRILAWYKGDPQQAKPGMRVKIQVGKRKEGYLMYEIAPALEHHHHHH | failed
MISPDAKIKIQNFGRFLSNMVMPNIGAFIAWGFITALFIPTGWLPNETLASMVGPMITYLLPLLIGYTGGKLVGGDRGAVVGAITTMGVIVGTDIPMFMGAMMVGPMGGWAIKKFDNYIDGKVKSGFEMLVNNFSAGIIGMLCAILAFFLIGPFVKVLSGALAAGVNFLVSAHLLPLTSIFVEPAKILFLNNAINHGIFSPLGIQQASETGQSIFFLIEANPGPGLGILLAYMVFGKGTARQTAGGASIIHFFGGIHEIYFPYILMNPRLILAAIAGGMTGVFVLTMFNAGIVSPASPGSIFAILLMTQKGSIVGVLASIAAATGVSFAVASLLMKTQTSTEEDGDEAALEKATSQMKDMKSSSKNGAVVNNESKGDVDLATVQSIIVACDAGMGSSAMGASMLRKKVQDAGLNVHVTNLAINSLPESADIVITHKDLTGRARKHAPNAHHISLTNFLDSEMYNQLVTKLLAAQKQSAANDDQMVKVSVLAANDDSFEPQQPSVFQIQRENIHLGLKAANKEEAIRFAGNKLVELGYAEPEYVDAMFEREALVPTYLGESIAVPHGTVEAKDRVKKTGIVICQYPSGIQFTEDDDDVAKLVIGIAAKNDEHIQVITTITNALDEPEAIEKLTSTNDVEEILNILGGQQAA | failed
MISRQQKMTFKEIKDGEMEERDILLTGFYNVRLNSVQEARLTYNLPNDQTVKFGFDGNGYSYGSDFWYIYNRTAQLGKEISSHLDENASKWIEEAGQKGYTTGNQAKVGAIACLPSYLSDAESSSHLAFVEYLNSDGSFIVSEMPSPNILNWRLIQPQSKMTFIYL | failed
MISSKNGAAMISRPVFLSDRVDEVFSRKLDLSVSSSSSSSLLQQFNKTHEGDDDARLALAHQLYKGGDFKQALEHSNMVYQRNPLRTDNLLLIGAIYYQLQEYDMCIARNEEALRIQPQFAECYGNMANAWKEKGDTDRAIRYYLIAIELRPNFADAWSNLASAYMRKGRLSEATQCCQQALSLNPLLVDAHSNLGNLMKAQGLIHEAYSCYLEAVRIQPTFAIAWSNLAGLFMESGDLNRALQYYKEAVKLKPAFPDAYLNLGNVYKALGRPTEAIMCYQHALQMRPNSAMAFGNIASIYYEQGQLDLAIRHYKQALSRDPRFLEAYNNLGNALKDIGRVDEAVRCYNQCLALQPNHPQAMANLGNIYMEWNMMGPASSLFKATLAVTTGLSAPFNNLAIIYKQQGNYSDAISCYNEVLRIDPLAADALVNRGNTYKEIGRVTEAIQDYMHAINFRPTMAEAHANLASAYKDSGHVEAAITSYKQALLLRPDFPEATCNLLHTLQCVCCWEDRSKMFAEVESIIRRQINMSVLPSVQPFHAIAYPIDPILALEISRKYAAHCSIIASRFGLPPFTHPAGLPVKREGGFKRLRIGYVSSDFGNHPLSHLMGSVFGMHNRENVEVFCYALSANDNTEWRQRIQSEAEHFLDVSAMSSDAIAKIINQDKIQILINLNGYTKGARNEIFAMQPAPIQVSYMGFPGTTGATYIDYLVTDEFVSPLQYAHIYSEKLVHLPHCYFVNDYKQKNQDVLDPNSKPKRSDYGLPEDKFIFACFNQLYKMDPEIVNTWCNILKRVPNSALWLLRFPAAGEMRFRTYAAAQGVQPDQIIFTDVAMKSEHIRRSVLADVILDTPLCNGHTTGTDVLWAGVPMITLPLEKMATRVAGSLCLATGLGHGMIVNSLEEYEEKAVSLALNKPKLQALTKELRASRLTCPLFDTMRWVKNLERSYFKMWNLHCSGQQPQHFKVLENDLEFPHDR | failed
MISYIQTKIHHINFLHDSLFKNAFFLMLSSISTAGFGFIFWFLAAKFYSASDVGIATGIMSSMTLIVNLSRFGLDYSIIRFFPTHDKCKVFSTSTVISTLIALIFGLIFISGINSFSPELSFLRSPLYTLFYFISLTSSSVIFMAGIFFVAIREAEFQLYLNLIVGSRVLFVILFISLGAIGIFYAVGASFFIAFLISLVLILKSGTDLKLKIDRKFLTDSFNFSAGNFLTGLFMTVPNTLLPIMILNMHLVEQAAYYYIVFGIVSLLFMIPESISTSLFVEGSNGQSLKKTVIQSLVIIFLLLTPIALFFYLYGSLILGFIGQDYVAGGSGVFRLMIFASFFVVVNNVYFAIKRIQKDTKEITLLSGIIFILLIGLAFLLIPVLGIEGIGYAWIISYGTGALIILIQVFRKARFQNLLIKAM | failed
MITAFVLIRPRGNRVQALGEAIAELPQVAEVYSVTGPYDLVALVRLKDVEELDDVVTQGILSLEGVERTETLLAFRAYPRRLLDQGFALGQG | not failed
MITFIIHSVSAETASESLLSKLAEAKDYLRIQPSVSSRILKKHLANIGQLTINDQLSWHQNLLRASIALNDLNQVEKTVKVMLSYPELEKKTDKFVSLLSSLGIFLRRTGHPNESILLFNCGLEQPIKNGKQKISLLISKGSSLSSLNKYSQAKTTYAQALQLAKQQNSEVLISAIYNTLGIMALKQGNYTLAKEYLVNALQLSQKISRRSGQIVAGLQLLRLSILSDEPMLYDRLHYRISRLTLVSESEVRHAYLFWLEKAHKASKGNKLSAQEQDELLSKLDQIKPISVSLYNQLVETLAEPMGITSLALINESSEYQGDLLNNIHQCKNIE | failed
